Test results published in patent US9885050B2, “Molecular affinity clamp technology and uses thereof” (The University of Chicago, priority 2007, dated 2018).
Like-named read-outs stand apart in the source and are kept apart here.

What was measured:
[1] = molecular target: T1, Grb2-SH2 domain (Homo sapiens, UniProt P62993); details: For eSH2 (Grb2); read-out: Affinity if known; cited from earlier work
T1 construct: The SH2 domain of Grb2 (“Grb2-SH2” hereafter) is ˜98 residue autonomously folded domain
T1 sequence (P62993 60-152 limits assumed): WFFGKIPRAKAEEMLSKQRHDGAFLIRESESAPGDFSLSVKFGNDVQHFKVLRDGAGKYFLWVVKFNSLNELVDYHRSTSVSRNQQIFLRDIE

[2] = molecular target: Pin1 WW domain (Homo sapiens, UniProt Q13526); details: For eWW (Pin1 WW); read-out: Affinity if known; cited from earlier work
Chain of Pin1 WW domain (Q13526 5-39 limits assumed): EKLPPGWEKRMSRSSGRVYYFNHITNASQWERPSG

[3] = molecular target: T2, δ-catenin peptide (PASPDSWV-COOH) (Homo sapiens, UniProt Q9UQB3); experiment: Surface plasmon resonance (SPR, BIAcore) analysis of motif binding, δ-catenin peptide; details: for Kd: SPR; for Specificity Index: ratio of Kd for δ-catenin to Kd for ARVCF
T2 construct: yeast SUMO (N); made in house
Text: (§1) Using semi-automated methods, the phage display library was sorted using an eight-residue motif (SEQ ID NO: 148) corresponding to the ARVCF C-terminus. […] The maximal motif/affinity concentrations are indicated. In B, C and F, the on and off rates are also shown on the left and right sides, respectively. […] After four rounds of sorting, two clones with high affinity were identified to the ARVCF peptide motif. ePDZ-a (SEQ ID NO: 149) and ePDZ-b (SEQ ID NO: 150) are thus (referred to as “enhanced PDZ-a” and “enhanced PDZ-b” or simply “ePDZ-a” and “ePDZ-b” respectively) potential affinity clamp candidates.
The binding specificity of the ePDZ clones was investigated. In addition to the ARVCF motif, wild-type erbin PDZ also binds to the C-terminus of δ-catenin with a low μM Kd. The two sequences differ only at positions outside the core recognition motif, DSWV (SEQ ID NO: 69) —COOH (Table 2). The affinity enhancement of ePDZ-a was similar for both targets. Remarkably, the ePDZ-b clone had very weak binding to δ-catenin, similar to the wild-type PDZ domain, showing that ePDZ-b discriminates between the two targets by ˜200 fold. Equally importantly, ePDZ-b discriminates amino acids outside the DSWV-COOH motif shared by the two peptides (Table 2), and thus, it expanded the size of the target motif. The improved specificity is consistent with the molecular affinity clamp design where the enhancer domain binds to the motif surface presented on the PDZ domain and thus can “read” the motif sequence (FIG. C2).

[4] = molecular target: T3, Ala-substituted ARVCF peptide (positions −7 to −4) (Homo sapiens, UniProt O00192, V958A); experiment: Alanine-scanning of the ARVCF peptide by SPR; type: binding; details: ARVCF peptide mutant
T3 construct: The tested positions are −7 to −4 in the ARVCF peptide (PQPVDSWV-COOH; mutated positions are underlined); yeast SUMO (N)
Procedure: (§2) To complement the library sorting experiments described above, Ala-scanning experiments of the ARVCF peptide were performed. When the goal is to define differences in the ability of ePDZ-a and ePDZ-b1 to recognize the differences between the ARVCF and δ-catenin peptides, only those positions that differ between the two peptides are analyzed.
(§3) Consistent with the peptide library sorting results, the ePDZ-b family was sensitive to Ala substitution mutations at all positions between −4 and −7. […] The results are shown in terms of changes in free energy change (ΔG=−RT ln(Kd^mutant/Kd^wild type)). […] The tested positions are −7 to −4 in the ARVCF peptide (PQPVDSWV-COOH; mutated positions are underlined). For each mutant, binding affinity was determined using surface plasmon resonance as described previously for the wild-type ARVCF peptide (69).

[5] = molecular target: T4, ARVCF peptide (PQPVDSWV-COOH) (Homo sapiens, UniProt O00192); experiment: Surface plasmon resonance (SPR, BIAcore) analysis of motif binding, ARVCF peptide; details: for koff / kon: for the ARVCF peptide; for Affinity Enhancement: ratio of Kd of parent protein (cpPDZFN) for ARVCF to that of the affinity clamp
T4 construct: made in house; host or cells: E. coli
Text: as §1
These two clones were characterized as soluble proteins.
One method to improve affinity of the affinity clamp is to improve the interaction interface of the enhancer domain (e.g. the FN3 domain). […] The two second-generation variants, ePDZ-b1 (SEQ ID NO: 151) and ePDZ-b2 (SEQ ID NO: 143), were prepared as protein samples and their binding properties were analyzed using SPR. […] The affinity enhancement primarily originated from reduced dissociation rates.
A disulfide-constrained peptide was used as an enhancer domain. A peptide-PDZ affinity clamp was designed in which the diversified peptide segment was N-terminal connected to the circularly permutated PDZ domain (cpPDZ) described above. (See, FIG. F1 showing an affinity clamp constructed with Cys-constrained peptide as an enhancer domain in which (A) is a schematic drawing of the affinity clamp. Note that the peptide is attached to the N-terminus of the interaction domain. (B, C) are saturation curves of the parent PDZ (B) and peptide-PDZ Affinity Clamp (C) determined using surface plasmon resonance (SPR). SPR experiments were performed in the equilibrium mode, and the SPR response is plotted as a function of the concentration of the target peptide. The target peptide fused to the yeast SUMO protein was used in these measurements. The curves show the best fit of the 1:1 binding model to the data. The Kd values are also shown.)

[6] = molecular target: T5, ARVCF (Homo sapiens, UniProt O00192); experiment: Western blotting of ARVCF in mammalian cell lysate; type: binding; details: vs commercial monoclonal antibody
T5 construct: host or cells: mammalian cell lysate
T5 sequence (O00192 1-962): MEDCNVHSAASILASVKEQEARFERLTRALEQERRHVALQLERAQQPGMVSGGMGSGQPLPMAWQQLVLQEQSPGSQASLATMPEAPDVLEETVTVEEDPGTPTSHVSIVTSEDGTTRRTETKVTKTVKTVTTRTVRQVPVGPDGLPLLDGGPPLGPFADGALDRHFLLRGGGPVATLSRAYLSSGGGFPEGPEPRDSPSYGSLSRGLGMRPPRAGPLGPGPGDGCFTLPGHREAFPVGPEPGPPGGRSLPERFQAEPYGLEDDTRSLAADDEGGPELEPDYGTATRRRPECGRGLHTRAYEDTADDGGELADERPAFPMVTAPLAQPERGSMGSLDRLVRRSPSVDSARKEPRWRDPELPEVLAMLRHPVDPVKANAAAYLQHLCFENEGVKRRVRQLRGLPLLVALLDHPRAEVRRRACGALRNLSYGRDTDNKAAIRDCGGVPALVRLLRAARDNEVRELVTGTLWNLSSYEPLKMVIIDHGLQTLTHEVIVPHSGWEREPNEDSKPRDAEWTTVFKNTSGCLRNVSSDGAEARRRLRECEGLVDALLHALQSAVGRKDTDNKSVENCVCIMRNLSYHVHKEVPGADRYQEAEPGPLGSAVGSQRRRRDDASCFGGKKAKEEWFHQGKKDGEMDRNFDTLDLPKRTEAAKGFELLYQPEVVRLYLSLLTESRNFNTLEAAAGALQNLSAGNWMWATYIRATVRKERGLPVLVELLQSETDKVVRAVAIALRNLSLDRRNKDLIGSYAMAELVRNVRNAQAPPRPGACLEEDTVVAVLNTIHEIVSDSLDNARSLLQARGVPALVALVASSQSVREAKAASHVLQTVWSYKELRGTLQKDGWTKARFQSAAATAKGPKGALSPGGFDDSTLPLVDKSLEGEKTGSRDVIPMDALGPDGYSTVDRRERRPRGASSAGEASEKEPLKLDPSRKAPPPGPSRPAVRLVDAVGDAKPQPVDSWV

[7] = test system: ARVCF target peptide (SUMO fusion) in E. coli lysate; experiment: Pull-down (immunoprecipitation) with biotinylated ePDZ's and streptavidin magnetic beads; type: binding; details: biotinylated clamp, streptavidin magnetic beads, E. coli lysate/cell extracts
Text: (§4) The PDZ-FN3 affinity clamps functioned well in Western blotting and in immunoprecipitation (pull down) assays. […] Lane 6 is a negative control for the secondary, anti-FLAG antibody. In FIG. C6B, pull-down (immunoprecipitation), biotinylated ePDZ's and streptavidin (SA)-magnetic beads were used. The input (I), unbound (U), wash (W) and bound (B) fractions were separated with SDS-PAGE and detected with CBB. Note that this is not Western blotting, which would have given higher sensitivity and specificity. […] Note that most of nonspecific binding is due to the SA-magnetic beads (lane 13). […] It is noted that the relatively low recovery of the target in the pull-down assays may be due to the fact that the off-rate was optimized for these clamps (FIG. C3).
These Kd values and dissociation rates compare favorably to those for monoclonal antibodies. The reduced dissociation rate of an affinity clamp improves its usefulness in immunochemical applications.

[8] = test system: SUMO-ARVCF fusion protein; experiment: Western blotting of SUMO-ARVCF fusion protein in E. coli lysate; type: binding; details: E. coli lysate containing 5 nanograms SUMO-ARVCF
Text: as §4

[9] = molecular target: T6, ARVCF peptide (Homo sapiens, UniProt O00192); experiment: IC50 for the ARVCF peptide (Table 4); type: binding
T6 construct: made in house; host or cells: E. coli

[10] = test system: Ala-substituted ARVCF peptide (positions −7 to −4); experiment: Alanine-scanning of the ARVCF peptide by SPR; type: binding; details: positions −7 to −4
Procedure: as §2, §3

[11] = Table 4, read-out: Kd [nM] δ-catenin
[12] = Table 4, SPR, read-out: Kd [nM] ARVCF
[13] = Table 2, SPR, read-out: Kd, ARVCF PQPVDSWV
[14] = Table 2, read-out: Kd, δ-catenin PASPDSWV

SPQPEpYVNQPDVR [ErbB2 pY1139]
Kd [1]: 0.076 µM

LYRpSPS [Cdc25c-S214]
Kd [2]: 72 µM

STSpTPR [Myt1-T455]
Kd [2]: 40 µM

YSPTpSPS [Polll-CTD-S5]
Kd [2]: 34 µM

ePDZ-b1: second-generation affinity-matured variant of ePDZ-b, SEQ ID NO: 151 (HYNYHYYS)
Kd [3, 11]: > 10000 nM
Specificity Index [3]: >2000
reduction in affinity on Ala substitution at position −4 [4]: over 200 fold
Kd [5, 12]: 5 nM
koff ([5]; SPR): <3.7 × 10^−4 S^−1
kon ([5]; SPR): 7.3 × 10^4 M^−1S^−1
Affinity Enhancement [5]: 4960

VPRpTPV [Cdc25c-T48]
Kd [2]: 8 µM

PPApTPP [Myt1-T412]
Kd [2]: 15 µM

PSpYVNVQN [SHC (control)]
Kd [1]: 0.018 µM

ePDZ-b2: second-generation affinity-matured variant of ePDZ-b, SEQ ID NO: 143 (SYYGVS)
Kd [3, 11]: > 10000 nM
Specificity Index [3]: >2500
Kd [5, 12]: 4 nM
koff ([5]; SPR): <2.9 × 10^−4 S^−1
kon ([5]; SPR): 7.0 × 10^4 M^−1S^−1
Affinity Enhancement [5]: 6200
performance in Western blotting [6]: superior to that of a commercially available monoclonal antibody
capture of target in pull-down (immunoprecipitation) [7]: captured a target peptide from E. coli lysate in a highly specific and quantitative manner

wt-PDZ: wild-type PDZ domain of Erbin (SEQ ID NO: 146) (YYDSHVS) [reference compound]
discrimination between ARVCF peptide and δ-catenin peptide [3]: almost equally
dissociation rate (in words) ([5]; SPR): too fast to measure
Kd [5, 13]: ~10000 nM
detection of target in Western blotting [8]: did not

VNATpYVNVKCVA [c-MET pY1356]
Kd [1]: 0.2 to 1 µM

B1: circularly permutated PDZ domain: erbin PDZ with original termini joined by Asn-Gly linker, new termini between residues 20 and 21 (protein)
chain: PELGFSISGGVGGRGNPFRPDDDGIFVTRVQPEGPASKLLQPGDKIIQANGYSFINIEHGQAVSLLKTFQNTVELIIVREVGNGAKQEIRVRVEKD
Kd ([5]; SPR equilibrium mode, target peptide fused to yeast SUMO, read-out: dissociation constant (Kd), ARVCF peptide): 11000 ± 700 nM

B2: ePDZ-b: affinity clamp: circularly permutated erbin PDZ fused to engineered FN3, SEQ ID NO: 150, selected for ARVCF peptide (protein)
chain: MKHHHHHHHHHHSSDYKDDDDKGENLYFQGSPELGFSISGGVGGRGNPFRPDDDGIFVTRVQPEGPASKLLQPGDKIIQANGYSFINIEHGQAVSLLKTFQNTVELIIVREVGNGAKQEIRVRVEKDGGSGGVSSVPTNLEVVAATPTSLLISWDAYYDSHVSYYRITYGETGGNSPVQEFTVPGSKSTATISGLKPGVDYTITVYAHYNYHYYSSPISINYRT
discrimination between ARVCF peptide and δ-catenin peptide [3]: ~200 fold
Kd [3, 14]: > 10000 nM
Kd [3, 11]: > 10000 nM
Specificity Index [3]: >178
Kd [5, 13]: 56 nM
Kd [5, 12]: 56 nM
koff ([5]; SPR): 1.1 × 10^−2 S^−1
kon ([5]; SPR): 1.9 × 10^5 M^−1S^−1
Affinity Enhancement [5]: 520
detection of target in Western blotting [8]: detected the target
IC50 [9]: 0.059 µM

B3: ePDZ-a: affinity clamp: circularly permutated erbin PDZ fused to engineered FN3, SEQ ID NO: 149, selected for ARVCF peptide (protein)
chain: MKHHHHHHHHHHSSDYKDDDDKGENLYFQGSPELGFSISGGVGGRGNPFRPDDDGIFVTRVQPEGPASKLLQPGDKIIQANGYSFINIEHGQAVSLLKTFQNTVELIIVREVGNGAKQEIRVRVEKDGGSGGVSSVPTNLEVVAATPTSLLISWDASYYGVSYYRITYGETGGNSPVQEFTVPYSSSTATISGLKPGVDYTITVYAYSDYYGSHHYSPISINYRT
Kd [3, 14]: 430 nM
Kd [3, 11]: 429 nM
Specificity Index [3]: 8
sensitivity to Ala substitutions of the ARVCF peptide [10]: much less sensitive to the Ala substitutions
Kd [5, 13]: 56 nM
Kd [5, 12]: 56 ± 6 nM
koff ([5]; SPR): 1.5 × 10^−2 S^−1
kon ([5]; SPR): 2.9 × 10^5 M^−1S^−1
Affinity Enhancement [5]: 520
detection of target in Western blotting [8]: detected the target
IC50 [9]: 0.04 µM
